We go through 2 molecules from publication PMC11100747 (bioRxiv, 2024).

The target in experiment [1] is T1, Gdi1 (yeast, UniProt P39958 1-451).
T1 sequence: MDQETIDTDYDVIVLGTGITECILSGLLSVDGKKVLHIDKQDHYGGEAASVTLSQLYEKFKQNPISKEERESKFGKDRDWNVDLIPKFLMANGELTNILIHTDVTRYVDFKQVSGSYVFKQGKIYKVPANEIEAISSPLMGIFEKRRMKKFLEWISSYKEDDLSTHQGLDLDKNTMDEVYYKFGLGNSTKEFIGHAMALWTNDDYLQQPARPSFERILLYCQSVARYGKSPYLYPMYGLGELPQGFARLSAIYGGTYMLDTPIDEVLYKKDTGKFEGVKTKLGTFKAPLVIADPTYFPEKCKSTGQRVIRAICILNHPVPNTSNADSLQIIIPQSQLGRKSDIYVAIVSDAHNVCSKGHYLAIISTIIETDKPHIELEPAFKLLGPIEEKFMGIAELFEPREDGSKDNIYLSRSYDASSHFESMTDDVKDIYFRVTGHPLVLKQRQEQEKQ
The experiment is described as follows: SEC. (Size exclusion chromatography separates by hydrodynamic size, large species first.)

Experiment [2] addresses T2, Ric1 (S. cerevisiae, UniProt P40395 1-1056).
T2 sequence: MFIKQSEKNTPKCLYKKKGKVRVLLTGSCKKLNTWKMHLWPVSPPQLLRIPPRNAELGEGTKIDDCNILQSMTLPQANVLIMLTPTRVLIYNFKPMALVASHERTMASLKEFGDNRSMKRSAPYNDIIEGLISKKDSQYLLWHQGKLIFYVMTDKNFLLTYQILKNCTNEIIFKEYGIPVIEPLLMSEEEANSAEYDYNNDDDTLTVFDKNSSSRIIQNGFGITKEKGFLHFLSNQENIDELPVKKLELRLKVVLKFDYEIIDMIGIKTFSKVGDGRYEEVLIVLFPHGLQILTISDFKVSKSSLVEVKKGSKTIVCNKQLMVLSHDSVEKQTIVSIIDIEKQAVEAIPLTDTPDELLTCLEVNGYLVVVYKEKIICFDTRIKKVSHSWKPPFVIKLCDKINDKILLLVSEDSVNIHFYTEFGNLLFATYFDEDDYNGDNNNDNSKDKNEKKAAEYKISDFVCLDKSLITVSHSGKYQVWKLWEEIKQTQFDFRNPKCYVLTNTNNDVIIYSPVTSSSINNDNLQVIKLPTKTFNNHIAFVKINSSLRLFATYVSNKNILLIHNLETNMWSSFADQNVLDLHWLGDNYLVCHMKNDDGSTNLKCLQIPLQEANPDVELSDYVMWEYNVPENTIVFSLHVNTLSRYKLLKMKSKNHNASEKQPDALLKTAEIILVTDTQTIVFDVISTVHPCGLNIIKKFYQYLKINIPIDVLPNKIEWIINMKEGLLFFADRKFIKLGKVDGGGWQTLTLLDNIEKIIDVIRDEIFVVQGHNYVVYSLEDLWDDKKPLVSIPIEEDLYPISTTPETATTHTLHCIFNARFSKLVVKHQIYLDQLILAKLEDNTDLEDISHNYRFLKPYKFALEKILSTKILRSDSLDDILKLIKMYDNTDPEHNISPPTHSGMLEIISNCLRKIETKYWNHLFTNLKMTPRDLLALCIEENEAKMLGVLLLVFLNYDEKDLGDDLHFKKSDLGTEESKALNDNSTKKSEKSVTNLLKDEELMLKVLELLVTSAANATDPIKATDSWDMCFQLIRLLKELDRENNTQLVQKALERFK
The experiment in a line: cryo-EM structure.

B1: prenylated Rab6-mantGDP (natural protein)
chain: MSRSGKSLTKYKIVFLGEQGVGKTSLITRFMYDTFDDHYQATIGIDFLSKTMYLDDKTIRLQLWDTAGQERFRSLIPSYIRDSRVAIIVYDITKRKSFEYIDKWIEDVKNERGDENVILCIVGNKSDLSDERQISTEEGEKKAKLLGAKIFMETSTKAGYNVKALFKKIAKSLPEFQNSESTPLDSENANSANQNKPGVIDISTAEEQEQSACQC
modifications: C-terminal cysteines prenylated (geranylgeranyl)
With B1, the binding result in experiment [1] is “binds”.

B2: Rgp1 (natural protein)
chain: MRAHRIDTFLIRENIKLEIIHESNSYFGGEHISIAFRFKHLGSQHELFNYKEKLLTVDKAVEEKLEQQAKVQDDGEGTMENQTWSLKSLLGAFKRTGEPEESVDVDNMKMLNESKMLREKIQKQMYFHQPVTLISGYVQISGVFQYDSEVISESKFKQDEVKMVGLDIVPGHTTNSVLALEDGEHFKGKRNLTNYLNSDYTNVTNGLLFSESGSRGRTGTYNERTLMISNDTSIKTLPLLLIPQTLLFSEISLEPGEVRTFYFKSTKLPKDICPSYSSSKVASINYTLEVGADVLSDDNIEKFSNRVPITIAPYISSNAEQYTSRLDKPAIILKTGNIKELKPRLFTRKVSTASAVSFGRRKSSIIDIDSPLEDNEFVKRVKKNFIELVESNQNVSRDIDELIDLQMGVQFGKDEDSSDPEPNDSHFSNEMVTSAESSLRSDAVTKRRKSYSVRDNISNLEQKMWNDCSLVKSDENSNLLPQLINLQNAYQINRNNETMAKVSLSAPFYKTTDDINLVIELDPITTPLLKVTSLTVSLESFEIINPKYKTEGKGIGSKPKGNSVYEKHFICFDECKSVSVKLLPPRSPTNQITGQFKTDVFQHKWMIGLKFVIIAKTESITLDQFYEDKKGILFHSKENLEGEEFTCYVPIPILCTSEDFMGW
With B2, the binding result in experiment [2] is “binds”.
